Data taken from US20250361298A1 (published 2025).

T1: LY6G6D
T1 chain: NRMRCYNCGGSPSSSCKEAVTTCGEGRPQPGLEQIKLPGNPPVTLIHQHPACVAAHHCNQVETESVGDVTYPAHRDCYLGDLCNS


Assays:
Test in all cases: BLI
LY6G6D = molecular target: T1, LY6G6D
cp1340 = molecular target: cp1340
cp1339 = molecular target: cp1339
cp1353 = molecular target: cp1353
cp1338 = molecular target: cp1338
cp1285 = molecular target: cp1285
cp1284 = molecular target: cp1284
cp1352 = molecular target: cp1352
cp1342 = molecular target: cp1342
cp1286 = molecular target: cp1286
cp1292 = molecular target: cp1292

Binder | Kd (LY6G6D) | Kd (cp1340) | Kd (cp1339) | Kd (cp1353) | Kd (cp1338) | Kd (cp1285) | Kd (cp1284) | Kd (cp1352) | Kd (cp1342) | Kd (cp1286) | Kd (cp1292)
CB21-499-177 (antibody, V domains shown) VH: EVQLVESGGGVVQPGRSLRLSCAASGFTFSSYGMHWVRQAPGKGLEWVAVIWYDASNKEYAPSVKGRFTISRDNSKNTLYLQMNSLRAEDTAIYYCARPGEGDYWGQGTLVTVSS VL: DIQMTQSPSSLSASVGDRVTITCRASQGVRNDFGWFQQKPGKAPKRLIYGASSLQSGVPSRFSGSGSGTEFTLTISSLQPEDFATYYCLQQNSYPWTFGQGTKLEIK | 0.255 nM |  |  |  |  |  |  |  |  |  | 
CB21-499 (antibody, V domains shown) VH: EVQLVESGGGVVQPGRSLRLSCAASGFTFSSYGMHWVRQAPGKGLEWVAVIWYDGSNKDYADSVKGRFTISRDNSKNTLYLQMNSLRAEDTAIYYCARPGEGDYWGQGTLVTVSS VL: DIQMTQSPSSLSASVGDRVTITCRASQGVRNDFGWFQQKPGKAPKRLIYGASSLQSGVPSRFSGSGSGTEFTLTISSLQPEDFATYYCLQQNSYPWTFGQGTKLEIK | 0.337 nM |  |  |  |  |  |  |  |  |  | 
cp203 (Fc fusion, biotinylated for BLI capture (site not stated)) NRMRCYNCGGSPSSSCKEAVTTCGEGRPQPGLEQIKLPGNPPVTLIHQHPACVAAHHCNQVETESVGDVTYPAHRDCYLGDLCNS |  | 2.52 nM | 0.824 nM | 21.8 nM | 0.695 nM | 1.78 nM | 40.7 nM | 1.54 nM | 1.73 nM | 1.12 nM | 6.97 nM
